This is an account of results in publication PMC7586803, “Click‐Chemistry (CuAAC) Trimerization of an αvβ6 Integrin Targeting Ga‐68‐Peptide: Enhanced Contrast for in‐Vivo PET Imaging of Human Lung Adenocarcinoma Xenografts” (Chembiochem, 2020).

One data set can be described thus: physchem. Type of data set: physicochemical. Conditions: pH 7.4. The protocol: To determine the n‐octanol/PBS distribution coefficients (log D 7.4), 650 μL octan‐1‐ol and 650 μL phosphate‐buffered saline (PBS, pH 7.4) were combined in a 1.5 mL Eppendorf tube. Approximately 0.5 MBq of the radiolabeled compound was added and vortexed for 2 min at 2850 rpm using a Vortex Genie2 (Scientific Industries). The samples were centrifuged (11 500 g, 10 min), after which 100 μL of the organic phase and 10 μL of the aqueous phase were taken out and the activities of the aliquots were quantified in a γ‐counter.

The next data set in a line: in vivo. The settings on record: female, CB17 SCID, mouse, iv, 120 pmol, total radioactivity. As for the experimental part:
(§1) Mice were used for biodistribution or PET when tumors had grown to a diameter of 8–10 mm (4–5 weeks after inoculation). β6 Integrin immunohistochemistry (IHC) was performed as described before.37
(§2) For biodistribution studies, the mice were administered approximately 120 pmol (3–8 MBq, depending on radiolabeling yield and decay) of the radiopharmaceuticals into the tail vein and allowed to wake up with access to food and water. […] Animals were sacrificed 90 min after injection, blood was immediately taken from the heart with a syringe, and the organs of interest (heart, lung, liver, spleen, pancreas, stomach (empty), small intestine (empty), large intestine (empty), kidneys, adrenals, muscle, tongue, tumor, tail) were dissected. The activity in weighed tissue samples was quantified by using a γ‐counter. Injected dose per gram tissue (%ID/g) was calculated from the organ weights and counted activities.

The target in data set [1] is T1, αvβ8 integrin (Homo sapiens, UniProt P06756+P26012). The data set can be described thus: Solid-phase binding assay (ELISA on immobilized integrins), αvβ8. The settings on record: LAP(TGF-β)-coated plates, non-radioactive 69/71Ga complex, determined in duplicate, referenced to internal standard […], read-out: IC50 (95 % confidence interval) αvβ8. As for the experimental part: (§3) After washing the plates with PBS‐T buffer (phosphate‐buffered saline/Tween20), free binding sites were blocked by incubation with TS‐B buffer (Tris‐saline/BSA). […] Surface‐bound integrin was detected by subsequent incubation with a specific primary antibody and a secondary peroxidase‐labeled antibody (anti‐mouse IgG‐POD, Sigma–Aldrich). After addition of the dye SeramunBlau (Seramun Diagnostic, Heidesee, Germany) and quenching of the reaction by addition of 3 M H2SO4, the absorbance at λ=450 nm was measured with a microplate reader (Tecan Genius, Männedorf, Switzerland). The IC50 value for each compound was determined in duplicate and the inhibition curves were analyzed by using OriginPro 9.0 software.
T1 sequence (P06756 31-992 limits assumed): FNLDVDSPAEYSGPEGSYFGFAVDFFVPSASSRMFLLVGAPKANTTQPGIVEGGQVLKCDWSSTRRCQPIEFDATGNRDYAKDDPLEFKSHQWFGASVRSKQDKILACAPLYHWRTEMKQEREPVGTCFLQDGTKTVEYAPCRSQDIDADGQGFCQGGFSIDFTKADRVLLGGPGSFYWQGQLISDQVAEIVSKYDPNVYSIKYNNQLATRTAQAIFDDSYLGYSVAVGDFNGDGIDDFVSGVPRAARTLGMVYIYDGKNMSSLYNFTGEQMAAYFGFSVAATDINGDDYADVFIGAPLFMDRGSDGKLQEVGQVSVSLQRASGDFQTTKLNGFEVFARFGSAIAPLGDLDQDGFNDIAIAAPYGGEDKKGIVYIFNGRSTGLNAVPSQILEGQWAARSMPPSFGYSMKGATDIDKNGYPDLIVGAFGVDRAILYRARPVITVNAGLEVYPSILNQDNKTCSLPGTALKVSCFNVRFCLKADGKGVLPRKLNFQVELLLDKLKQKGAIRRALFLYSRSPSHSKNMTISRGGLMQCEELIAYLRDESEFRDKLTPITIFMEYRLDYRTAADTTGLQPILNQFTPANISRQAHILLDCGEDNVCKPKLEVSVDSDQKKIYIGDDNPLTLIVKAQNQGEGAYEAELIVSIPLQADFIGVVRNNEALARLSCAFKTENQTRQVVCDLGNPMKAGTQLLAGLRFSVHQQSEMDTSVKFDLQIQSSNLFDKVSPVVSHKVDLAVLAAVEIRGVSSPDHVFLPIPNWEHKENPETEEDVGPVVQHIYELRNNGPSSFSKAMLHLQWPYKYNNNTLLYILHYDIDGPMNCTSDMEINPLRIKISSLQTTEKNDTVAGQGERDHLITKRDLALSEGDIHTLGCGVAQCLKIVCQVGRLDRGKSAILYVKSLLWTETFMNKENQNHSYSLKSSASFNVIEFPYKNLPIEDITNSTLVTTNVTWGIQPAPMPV
T1 sequence (P26012 43-684 limits assumed): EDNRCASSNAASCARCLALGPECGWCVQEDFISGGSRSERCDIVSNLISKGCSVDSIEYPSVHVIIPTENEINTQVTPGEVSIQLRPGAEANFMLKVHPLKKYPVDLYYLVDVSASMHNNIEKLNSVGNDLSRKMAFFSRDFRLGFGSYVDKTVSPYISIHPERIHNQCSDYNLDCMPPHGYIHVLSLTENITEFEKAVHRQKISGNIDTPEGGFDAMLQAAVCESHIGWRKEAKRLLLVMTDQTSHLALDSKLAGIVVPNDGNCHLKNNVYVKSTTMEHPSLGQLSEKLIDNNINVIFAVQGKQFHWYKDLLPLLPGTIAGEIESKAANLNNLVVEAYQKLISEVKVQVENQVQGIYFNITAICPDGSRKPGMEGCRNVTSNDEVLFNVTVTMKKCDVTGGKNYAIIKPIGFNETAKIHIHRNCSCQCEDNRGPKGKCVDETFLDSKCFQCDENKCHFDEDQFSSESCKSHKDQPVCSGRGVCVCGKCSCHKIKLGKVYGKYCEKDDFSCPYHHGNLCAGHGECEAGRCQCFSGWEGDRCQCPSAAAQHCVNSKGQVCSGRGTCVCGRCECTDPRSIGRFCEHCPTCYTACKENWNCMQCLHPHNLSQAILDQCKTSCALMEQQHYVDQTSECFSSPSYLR
(ELISA stands for enzyme-linked immunosorbent assay.)

In data set [2] the target is T2, αvβ6 integrin (Homo sapiens, UniProt P06756+P18564). The data set can be described thus: Solid-phase binding assay (ELISA on immobilized integrins), αvβ6. The protocol: as §3
T2 sequence (P06756 31-992 limits assumed): as the sequence (P06756 31-992 limits assumed) above
T2 sequence (P18564 22-707 limits assumed): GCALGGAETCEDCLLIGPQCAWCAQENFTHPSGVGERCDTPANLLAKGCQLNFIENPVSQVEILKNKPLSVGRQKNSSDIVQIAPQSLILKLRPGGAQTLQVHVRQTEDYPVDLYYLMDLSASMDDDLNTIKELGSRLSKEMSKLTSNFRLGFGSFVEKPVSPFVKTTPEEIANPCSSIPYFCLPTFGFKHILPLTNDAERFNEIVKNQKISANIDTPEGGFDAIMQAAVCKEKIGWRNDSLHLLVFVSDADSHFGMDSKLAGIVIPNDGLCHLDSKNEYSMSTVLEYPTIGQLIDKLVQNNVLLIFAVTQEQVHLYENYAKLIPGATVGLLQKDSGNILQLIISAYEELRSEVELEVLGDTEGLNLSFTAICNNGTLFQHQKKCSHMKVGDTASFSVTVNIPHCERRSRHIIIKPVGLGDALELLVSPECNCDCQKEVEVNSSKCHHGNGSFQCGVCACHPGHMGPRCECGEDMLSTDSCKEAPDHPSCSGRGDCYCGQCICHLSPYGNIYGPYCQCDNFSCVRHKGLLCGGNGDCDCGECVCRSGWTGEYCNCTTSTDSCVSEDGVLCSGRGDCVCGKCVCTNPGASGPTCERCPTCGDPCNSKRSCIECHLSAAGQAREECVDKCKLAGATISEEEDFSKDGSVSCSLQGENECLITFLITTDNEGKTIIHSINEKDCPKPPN
The subject of data set [3] is H2009 xenografted SCID mice. The data set can be described thus: in vivo. The settings on record: mouse. The protocol:
as §1, §2

Data set [4] concerns the target T2, αvβ6 integrin. The settings on record: activity of the internal standard to which measured IC50 values were referenced; cited from earlier work. From the text: (§4) Table 1 Integrin affinities (expressed as 50 % inhibition concentrations, IC50), IC50‐based selectivities, and octanol/PBS distribution coefficients (log D 7.4).
The target of data set [5] is T1, αvβ8 integrin. Conditions: activity of the internal standard to which measured IC50 values were referenced; cited from earlier work.
Description: as §4

[6] abbreviates: %ID/g Tumor H2009 (tumor uptake).
Where [7] appears, read: tumor/organ ratio Heart (myocard).
[8] abbreviates: tumor/organ ratio Large intestine (empty).
Where [9] appears, read: tumor/organ ratio Small intestine (empty).
Setting [10] is: tumor/organ ratio Stomach (empty).

Read-outs that look alike come from different tables or passages of the source.

As for `N=C(N)NCCC[C@@H]1NC(=O)CC[C@@H](C(=O)NCCCC[C@H](NC(=O)c2ccc(NC(=O)CN3CCN(CC(=O)O)CCN(CC(=O)O)CC3)cc2)C(N)=O)NC(=O)[C@H](C2CCCCC2)NC(=O)[C@H](CC(=O)O)NC(=O)CNC1=O` [^68Ga‐NOTA‐SDM17, metal not drawn], the logD – broadly, the decadic logarithm of the distribution of all forms, ionised or not, between an organic phase and buffer at a given pH – in the data set “physchem” was -3.91 ± 0.07. For the same compound, the tissue uptake (usually the percentage of the injected dose found per gram of tissue) at 1.5 h was determined as 0.28 ± 0.09 %ID/g in the data set “in vivo” (%ID/g Adrenals); 0.64 ± 0.05 %ID/g in the data set “in vivo” (%ID/g Blood); 0.2 ± 0.03 %ID/g in “in vivo” (%ID/g Heart (myocard)); 3.74 ± 0.73 %ID/g in the data set “in vivo” (%ID/g Kidneys); 0.22 ± 0.03 %ID/g in the data set “in vivo” (%ID/g Large intestine (empty)); 0.33 ± 0.04 %ID/g in the data set “in vivo” (%ID/g Liver). The tissue uptake at 1.5 h was 0.47 ± 0.03 %ID/g in “in vivo” (%ID/g Lung); 0.07 ± 0.01 %ID/g in the data set “in vivo” (%ID/g Muscle); 0.15 ± 0.02 %ID/g in “in vivo” (%ID/g Pancreas); 0.22 ± 0.01 %ID/g in “in vivo” (%ID/g Small intestine (empty)); 0.32 ± 0.06 %ID/g in “in vivo” (%ID/g Spleen); 0.34 ± 0.06 %ID/g in “in vivo” (%ID/g Stomach (empty)). For the same compound, the values for the tissue uptake at 1.5 h in the data set “in vivo” (%ID/g Tongue) and in “in vivo” (setting [6]) were 0.28 ± 0.03 %ID/g and 0.66 ± 0.03 %ID/g, respectively. The tissue to tissue ratio at 1.5 h came out at 2.5 ± 0.7 in the data set “in vivo” (tumor/organ ratio Adrenals); 1 ± 0.1 in “in vivo” (tumor/organ ratio Blood); 3.3 ± 0.6 in the data set “in vivo” (setting [7]); 0.2 in the data set “in vivo” (tumor/organ ratio Kidneys); 3.1 ± 0.4 in the data set “in vivo” (setting [8]); 2 ± 0.3 in “in vivo” (tumor/organ ratio Liver). For the same compound, the tissue to tissue ratio at 1.5 h turned out to be 1.4 ± 0.1 in “in vivo” (tumor/organ ratio Lung); 9.7 ± 0.7 in “in vivo” (tumor/organ ratio Muscle); 4.4 ± 0.8 in the data set “in vivo” (tumor/organ ratio Pancreas); 3 ± 0.1 in “in vivo” (setting [9]); 2.1 ± 0.4 in the data set “in vivo” (tumor/organ ratio Spleen); 2 ± 0.4 in “in vivo” (setting [10]). In addition, the tissue to tissue ratio at 1.5 h in “in vivo” (tumor/organ ratio Tongue) was determined as 2.4 ± 0.3.
`N=C(N)NCCC[C@@H]1NC(=O)CC[C@@H](C(=O)NCCCC[C@H](NC(=O)CCc2cn(CCCNC(=O)CCP(=O)(O)CN3CCN(CP(=O)(O)CCC(=O)NCCCn4cc(CCC(=O)N[C@@H](CCCCNC(=O)[C@@H]5CCC(=O)N[C@@H](CCCNC(=N)N)C(=O)NCC(=O)N[C@@H](CC(=O)O)C(=O)N[C@@H](C6CCCCC6)C(=O)N5)C(N)=O)nn4)CCN(CP(=O)(O)CCC(=O)NCCCn4cc(CCC(=O)N[C@@H](CCCCNC(=O)[C@@H]5CCC(=O)N[C@@H](CCCNC(=N)N)C(=O)NCC(=O)N[C@@H](CC(=O)O)C(=O)N[C@@H](C6CCCCC6)C(=O)N5)C(N)=O)nn4)CC3)nn2)C(N)=O)NC(=O)[C@H](C2CCCCC2)NC(=O)[C@H](CC(=O)O)NC(=O)CNC1=O` [^68Ga‐TRAP(SDM17)3, metal not drawn]: the IC50 (in general, the midpoint of a concentration-inhibition curve) on αvβ8 integrin [1] was found to be 172 nM; on αvβ6 integrin [2] (ELISA, LAP(TGF-β)-coated plates, non-radioactive 69/71Ga complex, determined in duplicate, referenced to internal standard […], read-out: IC50 (95 % confidence interval) αvβ6) it was 0.26 nM. This compound also gave a logD in the data set “physchem” of -4.08 ± 0.07. For the same compound, on αvβ6 integrin [2] (IC50-based selectivity factor (IC50 αvβ8 / IC50 αvβ6)), the “Selectivity for αvβ6 over αvβ8” value is 662. Also, in data set [3], the “higher tumor uptake than monomer” value is on record as “threefold”. The tissue uptake at 1.5 h amounted to 0.16 ± 0.02 %ID/g in “in vivo” (%ID/g Adrenals); 0.19 ± 0.05 %ID/g in the data set “in vivo” (%ID/g Blood); 0.1 ± 0.03 %ID/g in the data set “in vivo” (%ID/g Heart (myocard)); 21.8 ± 2.7 %ID/g in the data set “in vivo” (%ID/g Kidneys); 0.41 ± 0.09 %ID/g in “in vivo” (%ID/g Large intestine (empty)); 0.34 ± 0.21 %ID/g in “in vivo” (%ID/g Liver). Besides, the tissue uptake at 1.5 h in “in vivo” (%ID/g Lung) is 0.71 ± 0.15 %ID/g; in the data set “in vivo” (%ID/g Muscle) it was 0.1 ± 0.02 %ID/g; in “in vivo” (%ID/g Pancreas) it was 0.07 ± 0.01 %ID/g; in “in vivo” (%ID/g Small intestine (empty)) it was 0.31 ± 0.08 %ID/g; in the data set “in vivo” (%ID/g Spleen), 0.58 ± 0.11 %ID/g; in the data set “in vivo” (%ID/g Stomach (empty)), 1.04 ± 0.22 %ID/g. For the same compound, the tissue uptake at 1.5 h in the data set “in vivo” (%ID/g Tongue) was 0.35 ± 0.09 %ID/g; in the data set “in vivo” (setting [6]), 2.06 ± 0.34 %ID/g. The tissue to tissue ratio at 1.5 h stood at 12.5 ± 1.6 in “in vivo” (tumor/organ ratio Adrenals); 11.2 ± 1.9 in “in vivo” (tumor/organ ratio Blood); 21.7 ± 3 in “in vivo” (setting [7]); 0.1 in the data set “in vivo” (tumor/organ ratio Kidneys); 5.1 ± 1.2 in “in vivo” (setting [8]); 8.7 ± 5.2 in the data set “in vivo” (tumor/organ ratio Liver). The tissue to tissue ratio at 1.5 h amounted to 3 ± 0.4 in “in vivo” (tumor/organ ratio Lung); 22.3 ± 6.6 in “in vivo” (tumor/organ ratio Muscle); 29.7 ± 3 in the data set “in vivo” (tumor/organ ratio Pancreas); 7 ± 1.7 in “in vivo” (setting [9]); 3.6 ± 0.6 in the data set “in vivo” (tumor/organ ratio Spleen); 2 ± 0.4 in the data set “in vivo” (setting [10]). In addition, the tissue to tissue ratio at 1.5 h in the data set “in vivo” (tumor/organ ratio Tongue) was 6.2 ± 1.8.
Take RTDLDSLRT: the results for the IC50 with αvβ6 integrin [4] and with αvβ8 integrin [5] were 33 nM and 100 nM, respectively.
